Measurements taken from patent US6843989 (Seagen, dated 2005).

Columns and labels:
[1] = target: T1, CD40 expressed on the surface of B cells (human, UniProt P25942 21-277); assay: flow cytometry; soluble CD40L titrated on Ramos B cells
[2] = target: T1, CD40 expressed on the surface of B cells; assay: cell-based or functional assay

T1 sequence (P25942 21-277): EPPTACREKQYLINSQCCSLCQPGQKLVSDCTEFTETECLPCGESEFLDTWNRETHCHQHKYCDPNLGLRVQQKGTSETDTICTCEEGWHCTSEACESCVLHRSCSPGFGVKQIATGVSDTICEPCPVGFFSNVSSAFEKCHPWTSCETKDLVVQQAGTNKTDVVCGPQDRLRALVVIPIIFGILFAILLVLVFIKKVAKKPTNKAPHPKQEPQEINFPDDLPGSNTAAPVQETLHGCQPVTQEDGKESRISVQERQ

recombinant human soluble CD40 ligand (CD154-muCD8), FITC-labeled (from UniProt P29965 47-261; P27548 47-260)
saturation concentration [1]: 10 µg/mL

B1: anti-CD40 mAb G28-5 (antibody, V domains shown)
VH: DIQLQQSGPGLVKPSQSLSLTCSVTGYSITTNYNWNWIRQFPGNKLEWMGYIRYDGTSEYTPSLKNRVSITRDTSMNQFFLRLTSVTPEDTATYYCARLDYWGQGTSVTVSS
VL: DAVMTQNPLSLPVSLGDEASISCRSSQSLENSNGNTFLNWFFQKPGQSPQLLIYRVSNRFSGVPDRFSGSGSGTDFTLKISRVEAEDLGVYFCLQVTHVPYTFGGGTTLEIK
B cell proliferation (3H-thymidine incorporation) with CD40L+ T cell titration and 30 ng/ml mAb, over the level with mAb alone [2]: 1.3 fold
activation (proliferation) of primary human peripheral blood B cells with CD40L+ stimulator cells at 4:1 (B:T), against mAb alone [2]: 2 fold

B2: monoclonal antibody S2C6 (antibody, V domains shown)
VH: EVQLQQSGPDLVKPGASVKISCKASGYSFTGYYIHWVKQSHGKSLEWIGRVIPNNGGTSYNQKFKGKAILTVDKSSSTAYMELRSLTSEDSAVYYCAREGIYWWGHGTTLTVSS
VL: DVVVTQTPLSLPVSLGAQASISCRSSQSLVHSNGNTFLHWYLQKPGQSPKLLIYTVSNRFSGVPDRFSGSGSGTDFTLKISRVEAEDLGVYFCSQTTHVPWTFGGGTKLEIQ
B cell proliferation (3H-thymidine incorporation) with CD40L+ T cell titration and 30 ng/ml mAb, over mAb-only stimulation [2]: 3 fold
B cell proliferation of primary human peripheral blood B cells with CD40L+ stimulator cells at 4:1 (B:T), against mAb alone [2]: 16.2 fold
